Paper PMC7673715

Target: MyoVa^GTD (mouse) (UniProt Q99104)
Test: ITC

Spir2^GTBM (domain or fragment)
fold higher affinity than MICAL1^GTBM: 25 fold
